This assay addresses BLM, endogenous, P54132. The experiment in a line: PLA (α-Flag + α-BLM). The following applies: chain shown with the change, U2OS cells, 2 h, read off a plot.

B1: Flag-tagged GNL3 (Flag-GNL3), wild type, Q9BVP2 143VVLEVL149 to 143VAAEAL149 (SIMm) (protein)
chain: MKRPKLKKASKRMTCHKRYKIQKKVREHHRKLRKEAKKRGHKKPRKDPGVPNSAPFKEALLREAELRKQRLEELKQQQKLDRQKELEKKRKLETNPDIKPSNVEPMEKEFGLCKTENKAKSGKQNSKKLYCQELKKVIEASDVAAEALDARDPLGCRCPQVEEAIVQSGQKKLVLILNKSDLVPKENLESWLNYLKKELPTVVFRASTKPKDKGKITKRVKAKKNAAPFRSEVCFGKEGLWKLLGGFQETCSKAIRVGVIGFPNVGKSSIINSLKQEQMCNVGVSMGLTRSMQVVPLDKQITIIDSPSFIVSPLNSSSALALRSPASIEVVKPMEAASAILSQADARQVVLKYTVPGYRNSLEFFTVLAQRRGMHQKGGIPNVEGAAKLLWSEWTGASLAYYCHPPTSWTPPPYFNESIVVDMKSGFNLEELEKNNAQSIRAIKGPHLANSILFQSSGLTNGIIEEKDIHEELPKRKERKQEEREDDKDSDQETVDEEVDENSSGMFAAEETGEALSEETTAGEQSTRSFILDKIIEEDDAYDFSTDYV
As to B1, the response (PLA dots per cell) reads like this: (20 μM ETO, parent: est. 100) 24; (DMSO, parent: est. 13) 5.

Values taken from paper PMC13598120.
